Reference: paper PMC12448354

Legend:
[1] = molecular target: Monodelphis domestica von Willebrand factor (VWF), purified from plasma (Monodelphis domestica)
[2] = molecular target: human von Willebrand factor (VWF) (human) (UniProt P04275)

“botrocetin from Bothrops jararaca (purified venom fraction) (complex)” gave a reduction in the overall extent of platelet adhesion to collagen under flow (60 dyn/cm^2), opossum PRP with 4 ug/mL botrocetin, against the control without venom protein [1] of 39% and a reduction in the overall extent of platelet adhesion to collagen under flow (60 dyn/cm^2), human PRP with 4 ug/mL botrocetin, against the control without venom protein [2] of 66%.
